Measured values taken from the nanobody polyreactivity screen of Harvey et al. (2022).

assay: yeast display, Sf9 membrane polyspecificity reagent, FACS + sequencing; frameworks hold sequencing errors
Procedure, shortened: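 Sorting gates, low and high (top ~1%), were placed on anti-HA fluorescence to track expression and on streptavidin fluorescence to track reagent binding. A clone's polyreactivity label is taken from the gate it came out of. The reagent was 10% biotinylated, detergent-solubilized Sf9 membrane, applied for 1 hour at 4 °C to galactose-induced yeast display cells.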

| Sequence | polyreactivity (PSR sort gate) |
| --- | --- |
| QVQLVESGGGLVQAGGSLRLSCAASGSIFPFNAMGWYRQAPGKERELVAAITRSGGSTYYADSVKGRFTISRDNAKNTVYLQMNSLKPEDTAVYYCANDPEWPLPDFYYWGQGTQVTVSS | low polyreactivity |
| QVQLVESGGGLFQAGGSLRLSSAASGSIFHPYAMGWYRQAPGKERELVAAISSSTGRTYYADYVKGRFTISRDNAKNTVYLQMNSLKPEDTAVYYCAARKKYSEFDYWGQGTQVTVSS | high polyreactivity |
| QVQLVESGGGLVQAGGSLRLSCAASGSIFPVYAMGWYRQAPGKERELVAAISLRAGNTYYADSVKGRFTISRDNAKNTVYLQMNSLKPEDTAVYYCAVEWFRSTTIFDYWGQGTQVTVSS | high polyreactivity |
| QVQLVESGGGLVQAGGSLRLSCAASGSISYYNAMGWYRQAPGKERELVATITDSGGSTYYADSVKGRFTISRDNAKNTVYLQLNSLKPEDTAVYYCAVDYSEWYSIYDYWGQGTQVTVSS | low polyreactivity |
| QVQLVESGGGLVQAGGILRLSCAASGFILWYYTMGWSRQAPGKERELVAAISRGGTTYYADSVKGRFTISRDTAKNTVYLQMYSLKPEDTAVYYCNAPYNTHGIVLYDYWGQGTQVTVSS | low polyreactivity |
| QVQLVESGGGLLQAGGSLRLSCAASGSTFNKYTMGWYIKAPGKERELVAAITSGDSTYYADSVKGRFTISRDNAKYTVYLQMNSLKTEDTAVYYCAKSLRAYRHVIYGKPFYSWGQGTQVTVSS | low polyreactivity |
| QVQLVDSGGGLVQAGGSLRLSCAASGRTFGRYTMGWYRQAPGKERELVAAITYSGGSTYYADSVKGRFTISRDNAKNTVYLQMNSLKPEDTAVYYCAAEWVYDWYRYGYWGQGTQVTVSS | low polyreactivity |
| QVQVVESGGGLVQAGGSLRLICAASGSTFYSYAMGWYRQAPGKERELVAPISSSGVRTYYADSVKGRFTISRDNAKNTVFLQMISLKPEDTAVYYCNTYLKRYVGRGGPSYYWGQGTQVTVSS | high polyreactivity |
| QVQLVESGGGLVQAGGSLRLTCAASGSTFYTYAMGWYRQAPGNERELVAALSYGGGITYYADSVKGRFTISRDNEKNTVYIQMNSLKPEDTAVYYCAAVNGWQRYEFWGQGTQVTVSS | high polyreactivity |
| QVQLVESGGGLVQAGGSLRLSCAASGFTFRGYVMGWYRQAPGKERELVAAITNIGTSTYYADSVKGRFTISRDNAKNTVYLQMNSLKPEDTAVYYCAARLRTKFYYWGQGTLVTVSS | low polyreactivity |
| QVQLVESGGGLVQAGGSLRLSCAASGFTFAPNAMGWYRQAPGKEREFVAVITYRSTSTFYADSVKGRFTISRDNAKNTVYLQMNSLKPEDTAVYYCNAKYLWYGRYNYWGQGTQVTVSS | high polyreactivity |
| QVQLVESGGGLVQAGGSLRLSCAASGSTFLNYAMGWYRQAPWKERELVAAISGRGGRTYYADSVKGRFTISRDNATNTVYLQMNSLKPEDTAVYYCANKRRGGYLYRQELDYWGQGTQVTVSS | high polyreactivity |
| QVQLVDSGGGLVQAGGSLSLSCADSGFIFRAYEMGSYRQAPGNERALVAAISGSGGRTYYSDSVNGRFTISRDNAKNTVYLQKNSLKPEDTAVYYGKADFHYSIPGHAFATVYYWGQGTQVTVSS | low polyreactivity |
| QVQLVESGGGLVQAGGSLRLSCAASGFTIESNAMGWYRQAPGKERELVAAISASGDSTYYADSVKGRFTISRDNAKNTVYLQMNSLKPEDTAVYYCAADRYYGGWRFDHWGQGTQVTVSS | low polyreactivity |
| LVQLVESRGGLVQAGGSLRLSCAASGRTFAWYAMGWYRPAPGKERELVAAISNVGSTYYADTVKGRFTISRDNAKNTVYLQMNSLKPEDTAVYYCNPDAVSTDGREYWGQGTQVTVSS | low polyreactivity |
| QVQLVESGGGLVQAGGSLRLSCAASGFTFYYYTMGWYRQAPGKERELVAAITWRGGSTNYADSVKGRFTISRDNAKNTVYLQMNSLKPEDTAVYYCAAVTYWFWPGMDYWGQGTQVTVSS | low polyreactivity |
| QVQLVESGGGLVQAGGSLRLSCAASGSIFTTYAMGWSRQAPGKERELVAAITTSGGRTYYADSVKGRFTISRDNAKNTVYLQMNSLKPDDTAVYYCNAVRGGRYGLDYWGQGTQVTVSS | high polyreactivity |
| QVQLVESGGGLVQAGGSLRLSCAGSGSTFRSNAMGWYRQAPGKERELVAAISQRGGSTYYADSVKGRFTISRDNAKNTVYLQMNSLKPEDTAVYYCAAQYFRRSGYWGQGTQVTVSS | high polyreactivity |
| QVQLVESGGGLVQAGGRLRLSCAATGRTFRTYVMGWYRQGPGKEREMFAAITWSAGRTYYADSVKGRFTISRDNAQNTVYLQMNSLKPEDTAVYYCATLPTYYLRSYGLDYWGQGTQVTVSS | high polyreactivity |
| QVQLVESGGGLVQAGGSLRLSCAASGRIFASYGMGWYRQAPGKETELVATINSSGGSTYYADSVKGRFTISRDNAKNTVYLQLKSLKPEDTAVYYSNARHGYYKYGYWGQGTQVTVSS | low polyreactivity |
| QVQLEESGGGLVQAGGSLRLSCAASGFTFRAYAMGWYRQAPGKERELVAANTYSGDRTYYADSVKGRFTITRDNAKKTVYLQMNSLKPEDTAVYYCAAYGAKVNRPGYYYWGQGTQVTVSS | high polyreactivity |

| Sequence | polyreactivity (PSR sort gate) |
| --- | --- |
| QVQLVESGGGLVQAGGSLRLSCAASGSIFTPYAMGWYRQAPGKEREFVADIDDSGGGTYADSVKGRFTISRDNAKNTVYLQMNSLKPEDTAVYYCNADTGIWDYRFVDRDYWGQGTQVTVSW | low polyreactivity |
| QVQLVESGGGLVQAGGSLRLSCAASGSTFYRNAMGWYRQAPGKEREFVAAISFRGGGTYADSVKGRFTISRDNAKNTVYFQMNILKPEDTAVYYCAADLLSYRGRYEYWGQGTQVTVSS | low polyreactivity |
| QVQLVESGGGLVQAGGSLRLSCAASGFIFGQYAMGWYRQAPGKERELVAAISWSGGRTNYADSVKGRYTISRDNAKNTVYLQMNSLKPEDTAVYYCAARKGKYPQYTYGYWGQGTQVTVSS | high polyreactivity |
| QVQLVESGGGLVQAGGSLRLSCAASGRTLVYYAMGSYRQSPGKERELVAAISWSGSRTYYADSVKGRFTISRDNAKNTVYLQMNSLKPEDTAVYYCATLTFRTNGTMDYWGQGTQVTVSS | high polyreactivity |
| QVQLVESGGGLVQAGGSLRLSCAASGSIFRGYTMGWYIQAPGKERELVAAISTRGGSTYYADSVKGRFTISRDNSKNTVYLQMNSLKPEDTAVYYCNARSRGRASGYDYWGQGTQVTVSS | high polyreactivity |
| QVQLVESGGGLVQAGGSLRLSSAAYGIIIGYYAMGWYRQPPGKERELVAAISWSGGSTYYADSVKGRFTISRDNAKNTVYLQMNSLKPEDTAVYYCAAVVRRKSGNDTWRYNYWGQGTQVTVSS | high polyreactivity |
| QVQLVESGGGLVQAGGSLRLSCAASGRIFRFYAMGWYRQAPGKERELVADISRRGGSTYYADSVKGRFTISRDNAKNTVYLQMNSLKPEDTAVYYCNARWYRTGSTYHEDYWGQGTQVTVSS | high polyreactivity |
| QVQLVESGGGLVQAGGSLRLSCAASGRTFGQNAMGWYRQAPGKERELVAAISSGGSTYYADSVKGRFTISRDNAKNTVYLQMNSLKPEDTAVYYCAVSSWDRGYWYYYWGQGTQVTVSS | high polyreactivity |
| HVQLVESGGGLVQAGGSLRLSCAASGLTFQYNAMGWYRQAPGKERELVATISQSGGSTYYADSVKGRFTISRDNAKNTVYLQMNSLKPEDTAVYYCAAYRAWTWRIRYDYWGQGTQVTVSS | low polyreactivity |
| QVQLVESGGGLVQAGGSLRLICAASGRTFRRNAMGWYRQAPGKERELVAGIRSSGGSTYYADSVKGRFTISRDNAKNTVYLQMNSLKTEDTAVYYFAAAYRSASFPYDYWGQGTQVTVSS | high polyreactivity |
| QVQLVESGGGLVQAGGSLRLSCAASGRTFGVYMGWYRQAPGKERELVAVISSGDSTNYADSVKGRFTISRDNAKNTVYLQMNSLKPEDTAVYYCNAYGSDRLTLDDYWGQGTQVSVSS | low polyreactivity |
| QVQLVESGGGLVQAGGSLRLSCAASGLTFVENAMGWYRQAPGKERELVASISNGGSTYYADSVKGRFTISRDNAKNTVYLQMNSLKQEDTAVYYCAAGYWAGYGSTAPYDYWGQGTQVTVSS | low polyreactivity |
| QVQLVESGGGLVQAVGSLRLSCAASGNIFHRNAMGWYRQAPGKEMELVAAISWSGGSTYYADSVKGRFTISRDNAKNTVYLQMNSLKPEDTAVYFCNAYYYYRFKPSHPGLRSYYWGQGTQVTVSS | high polyreactivity |
| QVQLVESGGGLVQAGGSLRLSCAASGIIFRTNAMGWYRQAPGKEREFVAAISAGGTRTYYADSVKGRFTISRDNAKNTVYLQMNSLKPEDTAVYYCAAASGYDYWGQGTQVTVSS | high polyreactivity |
| QVQLVESGGGLVQAGGSLRLSCAASGRISGWNAMGWYRQAPGKERELVAASTWSDGSTYYADSVKGRFTISRDNAKNTVYLQMNSLKPEDTAVYYCAAEYGWYAGDPYYGYDYYWGQGTQVTVSS | high polyreactivity |
| QVQLVESGGGLVQAGCSLRLSCAASGRIFYLYTLGWYRQAPGKERELVAAITRAGRTYYADSVKGRFTISRDNAKNTFYLQMNSLKPEDTGVYYCAAAFLSRVQGYDSWGQGTQVTVSS | high polyreactivity |
| QVQLVESGGGLVQAGGSLRLSCASSGSTFNRYAMVWYRQAPGKERELVAAISGSGSSTYYADSVKGRFTISRDNAKNTVYLQMNSLKPEDNAVYYCAAVRYHKFREYNSWGQGTQVTVSS | high polyreactivity |
| QVQLVESGGGLVQAGGSLRLSCAASGSISGVYAMGWYRQAPGKERELVAAISRSGGSTYYADSVKGRFTISRDNAKNTVYLQMNSLKPEDTAVYYCAAEYTYYSYGGNYDYWGQGTQVSVSS | low polyreactivity |
| QVQLVESGGGLVQAGGSLRLSCAASGFIFGYNAMGWYRQAPGKERELVAAISSSGGSTYYADSVKGRFTISRDNAKNTVYLQMNSLKPEDTAVYYCAAESLTGYAHYDYWGQGTQVTVSS | low polyreactivity |
| QVHLVESGGGLVQAGGSLRLSCAASGRTLAPNAMGWYRQAPGKERELVATITRGGTTNYADSVKGRFTISRDNAKNTVYLQMNSLKPEDTAVYYCAAGYPSWYYGYPYDSWGQGTQVTVSS | low polyreactivity |
